B1: unnamed (parent)
chain 1: DYMGWMDF
chain 2: MDVVDSLLVNGSNITPPCELGLENETLFCLDQPRPSKEWQPAVQILLYSLIFLLSVLGNTLVITVLIRNKRMRTVTNIFLLSLAVSDLMLCLFCMPFNLIPNLLKDFIFGSAVCKTTTYFMGTSVSVSTFNLVAISLERYGAICKPLQSRVWQTKSHALKVIAATWCLSFTIMTPYPIYSNLVPFTKNNNQTANMCRFLLPNDVMQQSWHTFLLLILFLIPGIVMMVAYGLISLELYQGIKFEASQKKSAKERKPSTTSSGKYEDSDGCYLQKTRPPRKLELRQLSTGSSSRANRIRSNSSAANLMAKKRVIRMLIVIVVLFFLCWMPIFSANAWRAYDTASAERRLSGTPISFILLLSYTSSCVNPIIYCFMNKRFRLGFMATFPCCPNPGPPGARGEVGEEEEGGTTGASLSRFSYSHMSASVPPQ

Variants of: B1
Assay: radiolabeled ligand-binding assay (competition with unlabeled CCK-8)
Conditions: upper plateau of the fitted competition curve at the lowest CCK-8 concentration (log [CCK-8] = -12), read off a plot

**Q.** Which percent of parent does the source give for chain 2 MDVVDSLLVNGSNITPPCELGLENETLFCLDQPRPSKEWQPAVQILLYSLIFLLSVLGNTLVITVLIRNKRMRTVTNIFLLSLAVSDLMLCLFCMPFNLIPNLLKDFIFGSAVCKTTTYFMGTSVSVSTFNLVAISLERYGAICKPLQSRVWQTKSHALKVIAATWCLSFTIMTPYPIYSNLVPATKNNNQTANMCRFLLPNDVMQQSWHTFLLLILFLIPGIVMMVAYGLISLELYQGIKFEASQKKSAKERKPSTTSSGKYEDSDGCYLQKTRPPRKLELRQLSTGSSSRANRIRSNSSAANLMAKKRVIRMLIVIVVLFFLCWMPIFSANAWRAYDTASAERRLSGTPISFILLLSYTSSCVNPIIYCFMNKRFRLGFMATFPCCPNPGPPGARGEVGEEEEGGTTGASLSRFSYSHMSASVPPQ [chain 2 F185A] here?
**A.** 15 % WT

**Q.** chain 2 MDVVDSLLVNGSNITPPCELGLENETLFCLDQPRPSKEWQPAVQILLYSLIFLLSVLGNTLVITVLIRNKRMRTVTNIFLLSLAVSDLMLCLFCMPFNLIPNLLKDFIFGSAVCKTTTYFMGTSVSVSTFNLVAISLERYGAICKPLQSRVWQTKSHALKVIAATWCLSFTIMTPYPIYSNLVPFTKNNNQTANMCRFLLPNDVMQQSWATFLLLILFLIPGIVMMVAYGLISLELYQGIKFEASQKKSAKERKPSTTSSGKYEDSDGCYLQKTRPPRKLELRQLSTGSSSRANRIRSNSSAANLMAKKRVIRMLIVIVVLFFLCWMPIFSANAWRAYDTASAERRLSGTPISFILLLSYTSSCVNPIIYCFMNKRFRLGFMATFPCCPNPGPPGARGEVGEEEEGGTTGASLSRFSYSHMSASVPPQ [chain 2 H210A] was tested. Which percent of parent did it give?
**A.** 70 % WT

**Q.** With chain 2 MDVVDSLLVNGSNITPPCELGLENETLFCLDQPRPSKEWQPAVQILLYSLIFLLSVLGNTLVITVLIRNKRMRTVTNIFLLSLAVSDLMLCLFCMPFNLIPNLLADFIFGSAVCKTTTYFMGTSVSVSTFNLVAISLERYGAICKPLQSRVWQTKSHALKVIAATWCLSFTIMTPYPIYSNLVPFTKNNNQTANMCRFLLPNDVMQQSWHTFLLLILFLIPGIVMMVAYGLISLELYQGIKFEASQKKSAKERKPSTTSSGKYEDSDGCYLQKTRPPRKLELRQLSTGSSSRANRIRSNSSAANLMAKKRVIRMLIVIVVLFFLCWMPIFSANAWRAYDTASAERRLSGTPISFILLLSYTSSCVNPIIYCFMNKRFRLGFMATFPCCPNPGPPGARGEVGEEEEGGTTGASLSRFSYSHMSASVPPQ [chain 2 K105A] as the variant, how does the percent of parent read?
**A.** 50 % WT

**Q.** Which percent of parent does the source give for chain 2 MDVVDSLLVNGSNITPPCELGLENETLFCLDQPRPSKEWQPAVQILLYSLIFLLSVLGNTLVITVLIRNKRMRTVTNIFLLSLAVSDLMLCLFCMPFNLIPNLLKDFIFGSAVCKTTTYFAGTSVSVSTFNLVAISLERYGAICKPLQSRVWQTKSHALKVIAATWCLSFTIMTPYPIYSNLVPFTKNNNQTANMCRFLLPNDVMQQSWHTFLLLILFLIPGIVMMVAYGLISLELYQGIKFEASQKKSAKERKPSTTSSGKYEDSDGCYLQKTRPPRKLELRQLSTGSSSRANRIRSNSSAANLMAKKRVIRMLIVIVVLFFLCWMPIFSANAWRAYDTASAERRLSGTPISFILLLSYTSSCVNPIIYCFMNKRFRLGFMATFPCCPNPGPPGARGEVGEEEEGGTTGASLSRFSYSHMSASVPPQ [chain 2 M121A] here?
**A.** 230 % WT

**Q.** For chain 2 MDVVDSLLVNGSNITPPCELGLENETLFCLDQPRPSKEWQPAVQILLYSLIFLLSVLGNTLVITVLIRNKRMRTVTNIFLLSLAVSDLMLCLFCMPFNLIPNLLKDFIFGSAVCKTTTYFMGTSVSVSTFNLVAISLERYGAICKPLQSRVWQTKSHALKVIAATWCLSFTIMTPYPIYSNLVPFTKNNNQTANACRFLLPNDVMQQSWHTFLLLILFLIPGIVMMVAYGLISLELYQGIKFEASQKKSAKERKPSTTSSGKYEDSDGCYLQKTRPPRKLELRQLSTGSSSRANRIRSNSSAANLMAKKRVIRMLIVIVVLFFLCWMPIFSANAWRAYDTASAERRLSGTPISFILLLSYTSSCVNPIIYCFMNKRFRLGFMATFPCCPNPGPPGARGEVGEEEEGGTTGASLSRFSYSHMSASVPPQ [chain 2 M195A], which percent of parent is on record?
**A.** 30 % WT

**Q.** chain 2 MDVVDSLLVNGSNITPPCELGLENETLFCLDQPRPSKEWQPAVQILLYSLIFLLSVLGNTLVITVLIRNKRMRTVTNIFLLSLAVSDLMLCLFCMPFNLIPNLLKDFIFGSAVCKTTAYFMGTSVSVSTFNLVAISLERYGAICKPLQSRVWQTKSHALKVIAATWCLSFTIMTPYPIYSNLVPFTKNNNQTANMCRFLLPNDVMQQSWHTFLLLILFLIPGIVMMVAYGLISLELYQGIKFEASQKKSAKERKPSTTSSGKYEDSDGCYLQKTRPPRKLELRQLSTGSSSRANRIRSNSSAANLMAKKRVIRMLIVIVVLFFLCWMPIFSANAWRAYDTASAERRLSGTPISFILLLSYTSSCVNPIIYCFMNKRFRLGFMATFPCCPNPGPPGARGEVGEEEEGGTTGASLSRFSYSHMSASVPPQ [chain 2 T118A] was tested. Which percent of parent did it give?
**A.** 110 % WT

**Q.** Which percent of parent does the source give for chain 2 MDVVDSLLVNGSNITPPCELGLENETLFCLDQPRPSKEWQPAVQILLYSLIFLLSVLGNTLVITVLIRNKRMRTVTNIFLLSLAVSDLMLCLFCMPFNLIPNLLKDFIFGSAVCKTTTYFMGTSASVSTFNLVAISLERYGAICKPLQSRVWQTKSHALKVIAATWCLSFTIMTPYPIYSNLVPFTKNNNQTANMCRFLLPNDVMQQSWHTFLLLILFLIPGIVMMVAYGLISLELYQGIKFEASQKKSAKERKPSTTSSGKYEDSDGCYLQKTRPPRKLELRQLSTGSSSRANRIRSNSSAANLMAKKRVIRMLIVIVVLFFLCWMPIFSANAWRAYDTASAERRLSGTPISFILLLSYTSSCVNPIIYCFMNKRFRLGFMATFPCCPNPGPPGARGEVGEEEEGGTTGASLSRFSYSHMSASVPPQ [chain 2 V125A] here?
**A.** 75 % WT

**Q.** Which percent of parent does the source give for chain 2 MDVVDSLLVNGSNITPPCELGLENETLFCLDQPRPSKEWQPAVQILLYSLIFLLSVLGNTLVITVLIRNKRMRTVTNIFLLSLAVSDLMLCLFCMPFNLIPNLLKDFIFGSAVCKTTTYFMGTSVSVSTFNLVAISLERYGAICKPLQSRVWQTKSHALKVIAATWCLSFTIMTPYPIYSNLVPFTKNNNQTANMCRFLLPNDVMQQSWHTFLLLILFLIPGIVMMVAYGLISLELYQGIKFEASQKKSAKERKPSTTSSGKYEDSDGCYLQKTRPPRKLELRQLSTGSSSRANRIRSNSSAANLMAKKRVIRMLIVIVVLFFLCWMPIFSANAWRAYDTASAERRLSGTPISFILLLSATSSCVNPIIYCFMNKRFRLGFMATFPCCPNPGPPGARGEVGEEEEGGTTGASLSRFSYSHMSASVPPQ [chain 2 Y360A] here?
**A.** 28 % WT
